In the Human Domainome abundance scans (Beltran et al. 2025):
± gives the uncertainty stated by the source.

B1: Proto-oncogene vav, residues 782 to 842; numbered along this chain, P15498 (parent)
chain: KYFGTAKARYDFCARDRSELSLKEGDIIKILNKKGQQGWWRGEIYGRVGWFPANYVEEDYS

Variants of: B1
Experiment: abundance fitness (aPCA) (normalised: wild type 0, dead -1); higher = more abundant; growth selection in yeast, the domain comes from the species named
Conditions: Homo sapiens

Abundance fitness, by site and new letter:
F12: N -0.671 ± 0.32, W -0.114 ± 0.075, E -1.01 ± 0.29, G -0.977 ± 0.16, R -0.365 ± 0.066, P -1.13 ± 0.38, M -0.827 ± 0.28, Q -0.553 ± 0.28, A -0.537 ± 0.12, K -1.01 ± 0.44, C -0.83 ± 0.37, I -0.536 ± 0.25, L -0.813 ± 0.15, V -0.763 ± 0.13, S -0.886 ± 0.2, T -0.952 ± 0.43, H -0.029 ± 0.44
K29: Q -0.265 ± 0.1, F -0.483 ± 0.12, E -0.493 ± 0.12, M -0.095 ± 0.099, H -0.082 ± 0.11, A -0.225 ± 0.089, P -0.462 ± 0.14, V -0.376 ± 0.074, S -0.092 ± 0.069, I -0.391 ± 0.15, W -0.4 ± 0.1, G -0.281 ± 0.088, N -0.033 ± 0.1, T -0.103 ± 0.088, C -0.467 ± 0.14, Y -0.217 ± 0.18, L -0.068 ± 0.053, D -0.229 ± 0.23
L22: F 0.176 ± 0.1, W -0.888 ± 0.24, C -0.405 ± 0.2, P -0.971 ± 0.27, R -0.791 ± 0.11, K -0.857 ± 0.26, N -0.91 ± 0.35, Q -1.07 ± 0.41, M -0.13 ± 0.1, V -0.332 ± 0.12, A -0.494 ± 0.12, H -0.456 ± 0.2, I 0.016 ± 0.11, S -0.852 ± 0.13
G25: M -0.742 ± 0.12, Q -0.957 ± 0.41, V -1.21 ± 0.32, N -0.675 ± 0.27, F -0.786 ± 0.28, H -0.975 ± 0.34, P -0.615 ± 0.14, R -0.667 ± 0.091, L -0.904 ± 0.12, C -0.895 ± 0.28, S -0.818 ± 0.12, Y -1.02 ± 0.41, W -0.498 ± 0.1, A -0.721 ± 0.18, T -0.97 ± 0.23, D -0.518 ± 0.17
I30: G -0.675 ± 0.11, Q -0.833 ± 0.29, L -0.319 ± 0.055, M -0.555 ± 0.15, R -0.634 ± 0.093, E -0.876 ± 0.46, A -0.552 ± 0.12, P -0.814 ± 0.26, W -0.871 ± 0.16, S -0.662 ± 0.12, Y -0.74 ± 0.25, N -0.77 ± 0.33, F -0.776 ± 0.38, V 0.006 ± 0.075
A14: M -0.931 ± 0.23, L -1.03 ± 0.19, Q -0.541 ± 0.12, V -0.889 ± 0.15, E -0.873 ± 0.26, W -0.649 ± 0.14, T -0.54 ± 0.15, C -0.83 ± 0.38, Y -0.328 ± 0.16, K -0.692 ± 0.18, F -0.804 ± 0.24, P -0.355 ± 0.12, S -0.237 ± 0.072, N -0.742 ± 0.34, H -0.562 ± 0.23
E19: C -0.502 ± 0.14, V -0.922 ± 0.2, D -0.654 ± 0.25, R -1.08 ± 0.32, K -0.885 ± 0.22, Q -0.103 ± 0.19, M 0 ± 0.1, T -0.838 ± 0.19, G -0.678 ± 0.14, S -0.417 ± 0.094, L -0.593 ± 0.098, W -0.445 ± 0.15, F -0.657 ± 0.28, A -1 ± 0.34, Y -0.763 ± 0.38, H -0.137 ± 0.21
K23: H -0.142 ± 0.12, W -0.816 ± 0.2, T -0.237 ± 0.12, A -0.222 ± 0.084, Q -0.221 ± 0.12, P -0.907 ± 0.25, N -0.576 ± 0.2, E -0.613 ± 0.31, L -0.585 ± 0.097, F -0.585 ± 0.17, M -0.207 ± 0.11, S -0.168 ± 0.078, I -0.524 ± 0.19, G -0.815 ± 0.16, Y -0.232 ± 0.24
I28: Q -0.834 ± 0.37, T -0.315 ± 0.17, G -0.935 ± 0.2, M -0.593 ± 0.22, F -0.816 ± 0.29, W -0.591 ± 0.13, A -0.662 ± 0.17, P -0.811 ± 0.38, S -0.792 ± 0.29, R -1.11 ± 0.28, C -0.436 ± 0.21, L -0.412 ± 0.11, V 0.039 ± 0.06, D -0.944 ± 0.35
E24: R 0.068 ± 0.051, C -0.091 ± 0.051, A 0.082 ± 0.062, Y -0.231 ± 0.062, M -0.009 ± 0.094, N -0.118 ± 0.082, F -0.575 ± 0.077, V 0.045 ± 0.049, K -0.01 ± 0.11, D -0.361 ± 0.076, S -0.056 ± 0.046, L -0.809 ± 0.13, Q -0.072 ± 0.13, P -0.111 ± 0.096, W -0.92 ± 0.25, G -0.262 ± 0.053, I -0.124 ± 0.066, H -0.13 ± 0.098, T -0.01 ± 0.077
R15: M -0.507 ± 0.14, H -0.293 ± 0.31, N -0.411 ± 0.19, Y -0.414 ± 0.14, F -0.78 ± 0.23, G -0.316 ± 0.07, S -0.386 ± 0.089, D -0.466 ± 0.32, C -0.444 ± 0.15, K -0.169 ± 0.13, T -0.181 ± 0.1, Q -0.26 ± 0.11, P -0.925 ± 0.37, A -0.418 ± 0.12, V -0.471 ± 0.093
L20: W -0.919 ± 0.24, S -0.825 ± 0.13, F -0.937 ± 0.31, G -0.927 ± 0.18, Q -1.05 ± 0.39, E -0.852 ± 0.46, A -0.768 ± 0.19, Y -0.64 ± 0.25, I -0.342 ± 0.21, K -0.673 ± 0.24, T -0.642 ± 0.19, R -0.883 ± 0.15, C -0.966 ± 0.45, V -0.577 ± 0.1, M -0.756 ± 0.19, N -0.691 ± 0.35
N32: A -0.031 ± 0.075, F -0.118 ± 0.092, E 0.123 ± 0.11, D 0.162 ± 0.098
S18: R -0.156 ± 0.057, K -0.239 ± 0.13, H -0.096 ± 0.21, A 0.064 ± 0.08, W -0.258 ± 0.084, Y -0.158 ± 0.14, T -0.068 ± 0.1, M -0.271 ± 0.091, C -0.364 ± 0.13, D -0.169 ± 0.2, G -0.194 ± 0.081, N 0.024 ± 0.16, E -0.277 ± 0.12, P -0.794 ± 0.23, V -0.599 ± 0.11, Q -0.451 ± 0.15, L -0.368 ± 0.073
C13: N 0.123 ± 0.2, H -0.131 ± 0.24, Q 0.098 ± 0.15, T 0.146 ± 0.1, V 0.1 ± 0.054, S 0.028 ± 0.06, W -0.087 ± 0.089, F -0.006 ± 0.11, Y -0.198 ± 0.12, M -0.119 ± 0.086, R 0.025 ± 0.063, E 0.12 ± 0.086, G -0.285 ± 0.062, P -0.178 ± 0.1, D -0.28 ± 0.14, A -0.063 ± 0.066, K -0.201 ± 0.11, I -0.108 ± 0.13, L -0.058 ± 0.057
I27: L -0.198 ± 0.076, A -0.331 ± 0.091, M -0.192 ± 0.12, P -0.557 ± 0.23, R -0.21 ± 0.076, H -0.14 ± 0.14, Y -0.294 ± 0.14, W -0.324 ± 0.12, E -0.154 ± 0.091, D -0.151 ± 0.15, K -0.22 ± 0.13, F -0.44 ± 0.23, S -0.276 ± 0.079, V 0.065 ± 0.07, C -0.194 ± 0.085, G -0.704 ± 0.093
D11: V -0.587 ± 0.095, W -0.715 ± 0.16, T -0.316 ± 0.1, Y -0.441 ± 0.28
R17: C 0.1 ± 0.18, N 0.061 ± 0.16, W -0.223 ± 0.11, G -0.012 ± 0.09, D -0.046 ± 0.12, L 0.035 ± 0.065, F -0.315 ± 0.15, M -0.06 ± 0.1, K 0.065 ± 0.12, Y 0.107 ± 0.16, H -0.076 ± 0.15, T -0.027 ± 0.12, A 0.056 ± 0.072, P 0.031 ± 0.11, Q -0.044 ± 0.1, E -0.027 ± 0.11, V -0.014 ± 0.058
S21: T -0.265 ± 0.12, H -0.243 ± 0.15, N -0.333 ± 0.16, Q -0.594 ± 0.15, P -0.36 ± 0.13, R -0.742 ± 0.13, K -0.627 ± 0.17, Y -0.513 ± 0.22, L -0.653 ± 0.1, C -0.445 ± 0.13, G -0.34 ± 0.09, D 0.153 ± 0.19, E -0.049 ± 0.12, I -0.378 ± 0.26, F -0.607 ± 0.15, A -0.26 ± 0.077, V -0.895 ± 0.16
D16: K -0.174 ± 0.12, G -0.11 ± 0.071, H 0.022 ± 0.11, R -0.112 ± 0.064, F -0.618 ± 0.17, W -0.617 ± 0.081, E -0.225 ± 0.11, Y -0.445 ± 0.13, V -0.308 ± 0.071, Q -0.108 ± 0.11, P -0.839 ± 0.22, L -0.418 ± 0.072, M -0.499 ± 0.2, S 0 ± 0.069, T -0.135 ± 0.091
L31: W -0.251 ± 0.11, V -0.285 ± 0.092, K -0.392 ± 0.13, Q -0.525 ± 0.25, C -0.412 ± 0.23, E -0.644 ± 0.32, I -0.004 ± 0.1, S -0.618 ± 0.11, Y -0.188 ± 0.17, H -0.285 ± 0.16, D -0.415 ± 0.24, R -0.461 ± 0.094, N -0.649 ± 0.18, G -0.773 ± 0.13, M -0.366 ± 0.11, F -0.46 ± 0.22, T -0.133 ± 0.085, A -0.816 ± 0.16, P -0.988 ± 0.42
D26: E -0.172 ± 0.074, C -0.737 ± 0.26, Y -0.472 ± 0.18, W -0.8 ± 0.21, K -0.964 ± 0.3, H -0.941 ± 0.31, I -0.663 ± 0.29, A -0.493 ± 0.1, N -0.45 ± 0.1, G -0.948 ± 0.17, L -0.814 ± 0.13, M -0.401 ± 0.14, R -0.996 ± 0.19, T -0.777 ± 0.21, V -0.559 ± 0.072, Q -0.278 ± 0.13, P -1.15 ± 0.41
